Data on seven molecules can be found in patent US7422883 (INTER K, dated 2008).

No end group written: not given here. *: point of attachment. Biotin = O=C1N[C@H]2[C@H](CS[C@H]2CCCCC(=O)*)N1

Assay [1] concerns the target T1, GST.ERK2 (non-phosphorylated ERK2 coupled to glutathione-S-transferase) (Mus musculus (Mouse), UniProt P63085 1-358).
T1 construct: not shown: glutathione-S-transferase encoded by pGEX vector; N-terminal position assu
The experiment in a line: ELISA over a range of peptide concentrations (FIG. 20). In general terms: In an ELISA, binding on a coated surface is turned into a signal by an enzyme label.

Assay [2] deals with T1, GST.ERK2 (non-phosphorylated ERK2 …). The assay is described as follows: ELISA, biotinylated peptide on streptavidin plate, detection with SC1647. How it is done:
Peptide fragments corresponding to regions of the cytoplasmic tail domain of the β6 subunit were screened in an enzyme-linked immunosorbent assay (ELISA) for binding with ERK2. The 52 amino acid long β6 cytoplasmic tail is shown in FIG. 16 as are the amino acid sequences for the cytoplasmic domains of the β1 to β3 subunits. In particular, four synthetic peptides designated fragment 1 to fragment 4 were prepared and biotinylated at the N-terminal end of each, respectively (Auspep Pty Ltd, Melbourne Australia).
Overlapping biotinylated fragments 1 to 4 were coated onto streptavidin coated polystyrene plates (Pierce, Rockford Ill. USA, Cat No. 15125) and the ELISA performed substantially according to manufacturers instructions. […]
Binding of ERK to the peptides is detected using 100 µl anti-ERK1/2 mAb SC1647 (Santa Cruz) as the primary antibody at a dilution of 1:700 (isotype matched antibody IgG2b is used as a control). […] A […] of detection reagent (alkaline phosphatase detection kit-Biorad) is then introduced into each well after a final washing step and allowed to react for 15-30 minutes at room temperature in the dark before absorbance is measured at 405 nm. […]

The target in assay [3] is T2, ERK2 (soluble ERK2 used in the ELISAs of Examples 10 to 12) (Mus musculus (Mouse), UniProt P63085 1-358, limits assumed). The assay is described as follows: ELISA, corrected for non-specific binding (FIG. 34).
Assay [4] addresses T3, ERK2 cleaved from GST-ERK2 by thrombin (Mus musculus (Mouse), UniProt P63085 1-358, limits assumed).
T3 construct: also called ERK2 (thrombin cleaved)
The experiment in a line: ELISA with thrombin-cleaved ERK2 (FIG. 23).

The target in assay [5] is T2, ERK2 (soluble ERK2 used in the ELISAs …). The assay is described as follows: ELISA of ERK2 on synthetic peptide.

T2 sequence (P63085 whole entry): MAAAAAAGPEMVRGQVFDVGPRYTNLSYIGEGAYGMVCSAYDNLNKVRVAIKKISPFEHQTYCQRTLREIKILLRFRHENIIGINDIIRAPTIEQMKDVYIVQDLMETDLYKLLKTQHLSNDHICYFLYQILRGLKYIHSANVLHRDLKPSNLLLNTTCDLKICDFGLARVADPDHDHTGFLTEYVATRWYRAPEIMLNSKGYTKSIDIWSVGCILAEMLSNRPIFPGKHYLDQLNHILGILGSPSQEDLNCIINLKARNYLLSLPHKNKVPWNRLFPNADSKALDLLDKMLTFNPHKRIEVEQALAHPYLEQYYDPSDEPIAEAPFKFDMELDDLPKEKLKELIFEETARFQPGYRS
T1 sequence (P63085 whole entry): as above
T3 sequence (P63085 whole entry): as above

Regarding RSKAKWQTGT (also: biotinylated, position not given here) [10 mer test peptide RSKAKWQTGT], the binding result in assay [1] is “binds”.

Take Biotin-RSKAKWQTGTNPLYRGSTST (also called peptide fragment 2) [Fragment 2 of the β6 cytoplasmic tail]: the binding result in assay [2] is “binds”.

Turning to RSKAKWQTGTNPLYR (also: biotinylated, position not given here, also called 15-mer β6 peptide) [15 mer test peptide (seq. 4) RSKAKWQTGTNPLYR], the binding result in assay [1], in assay [3] and in assay [4] was “binds” in each case.

As to RSKAKNPLYR (4 with WQTGT omitted) [10 mer peptide 10(4) RSKAKNPLYR], the binding result in assay [4] was “binds”.

For the molecule KFEKEKMNAKWDTGENPIYK (also called β1 peptide) [β1 cytoplasmic domain peptide KFEKEKMNAKWDTGENPIYK], the binding result in assay [5] was “no binding (tested: ERK2 (1 µm) by the legend of FIG. 35C)”.

Take RARAKWDTANNPLYK (also called β3 peptide) [β3 cytoplasmic domain peptide RARAKWDTANNPLYK]: in assay [3], the binding result is given as “binds”.

Regarding RSRARYEMASNPLYR (also called β5 peptide; β5 fragment) [β5 cytoplasmic domain peptide RSRARYEMASNPLYR], the binding result in assay [3] is “binds”.
